Key:
HLA-C*03:03 = experiment: IEDB peptide-MHC binding, purified MHC/direct/fluorescence; filed as Kd, often an IC50 or EC50 that approximates it; ≥ and ≤ were set here for values at or beyond the usual limits of such assays; details: source organism: Orthomarburgvirus marburgense
HLA-A*02:01 [1] = experiment: as above
HLA-A*02:12 [2] = experiment: as above; details: source organism: Ravn virus - Ravn, Kenya, 1987
HLA-A*69:01 [3] = experiment: as above
HLA-A*29:02 [4] = experiment: as above; details: source organism: Mammarenavirus juninense
HLA-A*01:01 = experiment: as above
HLA-A*80:01 = experiment: as above; details: source organism: Mammarenavirus juninense
HLA-B*15:01 [5] = experiment: as above
HLA-A*24:02 = experiment: as above
HLA-A*11:01 = experiment: as above
HLA-A*31:01 [6] = experiment: as above
HLA-B*18:01 [7] = experiment: as above
HLA-A*03:01 [8] = experiment: as above
HLA-B*58:01 = experiment: as above
HLA-B*27:05 = experiment: as above
HLA-B*46:01 [9] = experiment: as above
HLA-B*40:01 = experiment: as above
HLA-B*07:02 = experiment: as above
HLA-B*08:02 = experiment: as above
HLA-B*44:02 = experiment: as above
HLA-A*29:02 [10] = experiment: IEDB peptide-MHC binding, purified MHC/competitive/fluorescence; filed as Kd, often an IC50 or EC50 that approximates it; ≥ and ≤ were set here for values at or beyond the usual limits of such assays
HLA-B*08:01 = experiment: IEDB peptide-MHC binding, purified MHC/direct/fluorescence; filed as Kd, often an IC50 or EC50 that approximates it; ≥ and ≤ were set here for values at or beyond the usual limits of such assays; details: source organism: Vibrio parahaemolyticus AQ3810
HLA-B*15:09 = experiment: as above
HLA-A*24:03 = experiment: IEDB peptide-MHC binding, purified MHC/competitive/fluorescence; filed as Kd, often an IC50 or EC50 that approximates it; ≥ and ≤ were set here for values at or beyond the usual limits of such assays
HLA-B*15:01 [11] = experiment: as above
HLA-A*02:16 = experiment: as above
HLA-A*68:02 = experiment: as above
HLA-A*31:01 [12] = experiment: as above; details: source organism: Cryptosporidium parvum Iowa II
HLA-B*18:01 [13] = experiment: as above
HLA-A*02:19 = experiment: as above
HLA-B*46:01 [14] = experiment: as above
HLA-B*39:01 = experiment: as above
HLA-A*26:01 = experiment: as above
HLA-A*02:01 [15] = experiment: as above
HLA-B*51:01 = experiment: as above
HLA-A*02:11 = experiment: as above
HLA-B*57:01 = experiment: as above
HLA-A*02:03 = experiment: as above
HLA-A*02:12 [16] = experiment: as above
HLA-B*27:03 = experiment: as above
HLA-A*69:01 [17] = experiment: as above
HLA-B*15:17 = experiment: as above; details: source organism: Entamoeba histolytica HM-1:IMSS
HLA-A*03:01 [18] = experiment: as above; details: source organism: Entamoeba histolytica HM-1:IMSS
[19] = source organism: Marburg virus - Musoke, Kenya, 1980
[20] = source organism: Coxiella burnetii
[21] = source organism: Vibrio parahaemolyticus
[22] = source organism: Vibrio parahaemolyticus AQ3810
[23] = source organism: Cryptosporidium parvum Iowa II
[24] = source organism: Rickettsia bellii
[25] = source organism: Entamoeba histolytica HM-1:IMSS

Question: How did the Kd (HLA-C*03:03) turn out when YMQQVSEGL was run?
Answer: The Kd was 0.498 µM.

Question: And the Kd (HLA-A*02:01 [1]; [19])?
Answer: Its Kd is 0.153 µM.

Question: What about the Kd (HLA-A*02:12 [2]) of the same sequence?
Answer: The Kd was 0.002 µM.

Question: What about the Kd (HLA-A*69:01 [3]; [19]) of the same sequence?
Answer: Its Kd is 1.38 µM.

Question: Which results are given for VSDRPVMRY?
Answer: Kd (HLA-A*29:02 [4]): 0.117 µM; Kd (HLA-A*01:01; source organism: Mammarenavirus juninense): 0.185 µM; Kd (HLA-A*80:01): 0.36 µM

Question: AISRLRTQK was tested. Which Kd (HLA-B*15:01 [5]; [20]) did it give?
Answer: Its Kd is at least 20 µM.

Question: What about the Kd (HLA-A*24:02; [20]) of the same sequence?
Answer: The Kd was at least 20 µM.

Question: And the Kd (HLA-A*11:01; [20])?
Answer: Its Kd is 0.0995 µM.

Question: And the Kd (HLA-A*31:01 [6]; [20])?
Answer: The Kd was 0.344 µM.

Question: What about the Kd (HLA-B*18:01 [7]; [20]) of the same sequence?
Answer: The Kd was at least 20 µM.

Question: What about the Kd (HLA-A*03:01 [8]; [20]) of the same sequence?
Answer: Its Kd is 0.386 µM.

Question: And the Kd (HLA-B*58:01; [20])?
Answer: Its Kd is at least 20 µM.

Question: And the Kd (HLA-B*27:05; [20])?
Answer: The Kd was at least 20 µM.

Question: And the Kd (HLA-B*46:01 [9]; [20])?
Answer: The Kd was at least 20 µM.

Question: And the Kd (HLA-A*02:01 [1]; [20])?
Answer: Its Kd is at least 20 µM.

Question: What about the Kd (HLA-B*40:01; [20]) of the same sequence?
Answer: Its Kd is at least 20 µM.

Question: What about the Kd (HLA-A*01:01; [20]) of the same sequence?
Answer: The Kd was at least 20 µM.

Question: What about the Kd (HLA-B*07:02; [20]) of the same sequence?
Answer: Its Kd is at least 20 µM.

Question: And the Kd (HLA-B*08:02; source organism: Coxiella burnetii Q321)?
Answer: Its Kd is at least 20 µM.

Question: What about the Kd (HLA-B*44:02; [20]) of the same sequence?
Answer: The Kd was at least 20 µM.

Question: What about the Kd (HLA-A*69:01 [3]; [20]) of the same sequence?
Answer: Its Kd is at least 20 µM.

Question: How did the Kd (HLA-A*29:02 [10]; source organism: Mycobacterium tuberculosis variant bovis BCG str. Pasteur 1173P2) turn out when LAIDRDDLY was run?
Answer: The Kd was 0.0053 µM.

Question: Which Kd (HLA-B*15:01 [5]; [21]) does the source give for MLDQFGVSY here?
Answer: Its Kd is 0.143 µM.

Question: And the Kd (HLA-A*24:02; [21])?
Answer: Its Kd is at least 20 µM.

Question: And the Kd (HLA-B*08:01)?
Answer: Its Kd is at least 20 µM.

Question: What about the Kd (HLA-A*11:01; [21]) of the same sequence?
Answer: The Kd was at least 20 µM.

Question: What about the Kd (HLA-A*31:01 [6]; [21]) of the same sequence?
Answer: Its Kd is at least 20 µM.

Question: And the Kd (HLA-A*03:01 [8]; [21])?
Answer: The Kd was at least 20 µM.

Question: What about the Kd (HLA-B*58:01; [21]) of the same sequence?
Answer: The Kd was at least 20 µM.

Question: And the Kd (HLA-B*27:05; [21])?
Answer: The Kd was at least 20 µM.

Question: And the Kd (HLA-A*02:01 [1]; [21])?
Answer: The Kd was at least 20 µM.

Question: And the Kd (HLA-B*40:01; [21])?
Answer: Its Kd is at least 20 µM.

Question: What about the Kd (HLA-A*01:01; [21]) of the same sequence?
Answer: Its Kd is 0.021 µM.

Question: What about the Kd (HLA-B*15:09; [22]) of the same sequence?
Answer: The Kd was at least 20 µM.

Question: What about the Kd (HLA-B*07:02; [21]) of the same sequence?
Answer: The Kd was at least 20 µM.

Question: And the Kd (HLA-B*08:02; [22])?
Answer: Its Kd is at least 20 µM.

Question: And the Kd (HLA-B*44:02; [21])?
Answer: Its Kd is at least 20 µM.

Question: What about the Kd (HLA-A*69:01 [3]; [21]) of the same sequence?
Answer: Its Kd is at least 20 µM.

Question: For RGRKPIFRK, which Kd (HLA-A*24:03; [23]) is on record?
Answer: Its Kd is at least 20 µM.

Question: What about the Kd (HLA-B*15:01 [11]; [23]) of the same sequence?
Answer: The Kd was at least 20 µM.

Question: What about the Kd (HLA-A*02:16; [23]) of the same sequence?
Answer: The Kd was at least 20 µM.

Question: What about the Kd (HLA-A*68:02; [23]) of the same sequence?
Answer: The Kd was at least 20 µM.

Question: What about the Kd (HLA-A*31:01 [12]) of the same sequence?
Answer: The Kd was 0.0532 µM.

Question: What about the Kd (HLA-A*29:02 [10]; [23]) of the same sequence?
Answer: Its Kd is at least 20 µM.

Question: And the Kd (HLA-B*18:01 [13]; [23])?
Answer: The Kd was at least 20 µM.

Question: What about the Kd (HLA-A*02:19; [23]) of the same sequence?
Answer: The Kd was at least 20 µM.

Question: And the Kd (HLA-B*46:01 [14]; [23])?
Answer: The Kd was at least 20 µM.

Question: What about the Kd (HLA-B*39:01; [23]) of the same sequence?
Answer: The Kd was at least 20 µM.

Question: What about the Kd (HLA-A*26:01; [23]) of the same sequence?
Answer: Its Kd is at least 20 µM.

Question: And the Kd (HLA-A*02:01 [15]; [23])?
Answer: Its Kd is at least 20 µM.

Question: What about the Kd (HLA-B*51:01; [23]) of the same sequence?
Answer: Its Kd is at least 20 µM.

Question: What about the Kd (HLA-A*02:11; [23]) of the same sequence?
Answer: Its Kd is at least 20 µM.

Question: What about the Kd (HLA-B*57:01; [23]) of the same sequence?
Answer: Its Kd is at least 20 µM.

Question: What about the Kd (HLA-A*02:03; [23]) of the same sequence?
Answer: Its Kd is at least 20 µM.

Question: And the Kd (HLA-A*02:12 [16]; [23])?
Answer: The Kd was at least 20 µM.

Question: And the Kd (HLA-B*27:03; [23])?
Answer: The Kd was at least 20 µM.

Question: What about the Kd (HLA-A*69:01 [17]; [23]) of the same sequence?
Answer: The Kd was at least 20 µM.

Question: What does the source list for NIDPEHLDY?
Answer: Kd (HLA-B*15:01 [5]; [24]): ≥ 20 µM; Kd (HLA-A*24:02; [24]): ≥ 20 µM; Kd (HLA-A*11:01; [24]): ≥ 20 µM; Kd (HLA-A*31:01 [6]; [24]): ≥ 20 µM; Kd (HLA-B*18:01 [7]; [24]): ≥ 20 µM; Kd (HLA-A*03:01 [8]; [24]): ≥ 20 µM; Kd (HLA-B*58:01; [24]): ≥ 20 µM; Kd (HLA-B*27:05; [24]): ≥ 20 µM; Kd (HLA-B*46:01 [9]; [24]): ≥ 20 µM; Kd (HLA-A*02:01 [1]; [24]): ≥ 20 µM; Kd (HLA-B*40:01; [24]): ≥ 20 µM; Kd (HLA-A*01:01; [24]): 0.0326 µM; Kd (HLA-B*15:09; source organism: Rickettsia typhi str. Wilmington): ≥ 20 µM; Kd (HLA-B*07:02; [24]): ≥ 20 µM; Kd (HLA-B*44:02; [24]): ≥ 20 µM; Kd (HLA-A*69:01 [3]; [24]): ≥ 20 µM

Question: Which results are given for IEAKINVAD?
Answer: Kd (HLA-A*24:03; [25]): ≥ 20 µM; Kd (HLA-B*15:01 [11]; [25]): ≥ 20 µM; Kd (HLA-A*02:16; [25]): ≥ 20 µM; Kd (HLA-A*68:02; [25]): ≥ 20 µM; Kd (HLA-A*29:02 [10]; [25]): ≥ 20 µM; Kd (HLA-B*15:17): ≥ 20 µM; Kd (HLA-B*18:01 [13]; [25]): 0.389 µM; Kd (HLA-A*03:01 [18]): ≥ 20 µM; Kd (HLA-A*02:19; [25]): ≥ 20 µM; Kd (HLA-B*46:01 [14]; [25]): ≥ 20 µM; Kd (HLA-B*39:01; [25]): ≥ 20 µM; Kd (HLA-A*26:01; [25]): ≥ 20 µM; Kd (HLA-A*02:01 [15]; [25]): ≥ 20 µM; Kd (HLA-B*51:01; [25]): ≥ 20 µM; Kd (HLA-A*02:11; [25]): ≥ 20 µM; Kd (HLA-B*57:01; [25]): ≥ 20 µM; Kd (HLA-A*02:03; [25]): ≥ 20 µM; Kd (HLA-A*02:12 [16]; [25]): ≥ 20 µM; Kd (HLA-B*27:03; [25]): ≥ 20 µM; Kd (HLA-A*69:01 [17]; [25]): ≥ 20 µM
